Legend:
[1] = molecular target: T1, 人角蛋白18(CK18), endogenous protein in PC9 cell lysate / membrane protein extract (human, UniProt P05783 2-430); experiment: Western blot on PC9 whole-cell lysate, antibody diluted 1:1000 and 1:2000
T1 construct: Endogenous protein in lysate or extract; also called 48KD条带
T1 sequence (looked up): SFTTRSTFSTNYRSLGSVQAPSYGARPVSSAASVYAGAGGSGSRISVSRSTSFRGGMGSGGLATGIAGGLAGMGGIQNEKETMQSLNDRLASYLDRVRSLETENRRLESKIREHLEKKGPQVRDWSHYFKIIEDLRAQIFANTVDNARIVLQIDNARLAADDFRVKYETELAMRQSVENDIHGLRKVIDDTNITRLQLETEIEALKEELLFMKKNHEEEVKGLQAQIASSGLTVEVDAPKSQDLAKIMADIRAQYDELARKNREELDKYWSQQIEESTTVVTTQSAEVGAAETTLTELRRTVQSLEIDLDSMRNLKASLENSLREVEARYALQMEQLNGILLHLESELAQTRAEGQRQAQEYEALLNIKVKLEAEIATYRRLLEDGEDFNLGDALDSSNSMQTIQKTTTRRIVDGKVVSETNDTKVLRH

[2] = molecular target: T2, 人角蛋白18(CK18), on PC9 human lung cancer cells (human, UniProt P05783 2-430); experiment: immunofluorescence on PFA-fixed non-permeabilised PC9 cells, antibody 1:1000, FITC goat anti-mouse secondary
T2 construct: whole, on cells; Endogenous CK18 on non-permeabilised PFA-fixed PC9 cells (IF) or live PC-9 cells (capture); also called human keratin 18; cytokeratin 18
T2 sequence (looked up): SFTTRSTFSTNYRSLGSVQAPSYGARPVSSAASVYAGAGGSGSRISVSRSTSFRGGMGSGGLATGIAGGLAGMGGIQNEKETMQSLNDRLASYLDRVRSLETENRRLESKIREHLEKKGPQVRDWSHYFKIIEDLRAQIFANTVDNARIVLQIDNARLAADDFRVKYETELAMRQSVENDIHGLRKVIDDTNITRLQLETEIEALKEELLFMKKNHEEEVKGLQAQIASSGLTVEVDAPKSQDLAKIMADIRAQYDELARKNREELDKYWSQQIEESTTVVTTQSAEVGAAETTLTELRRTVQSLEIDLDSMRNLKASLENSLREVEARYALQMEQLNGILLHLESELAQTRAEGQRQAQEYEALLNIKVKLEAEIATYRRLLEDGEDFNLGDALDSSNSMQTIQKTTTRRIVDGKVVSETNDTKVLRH

binding result [1]: binds
binding result [2]: binds
B1: anti-CK18(克隆号1P1)抗体 (antibody, V domains shown)
VH: EVQLQESGPSLVKPSQTLSLTCSVTGDSFTSGYWNWIRKFPGNKLEYMGYISYSGNCYYNPSLKSRISITRDTSKNQYYLQMNSVTTEDTATYFCARASAYYYGSFYDYAMDYWGQGTSVTVSS
VL: DIVMTQSQKFMSTSVGDRVSITCKASQNVDTAVAWYQQKPGQSPKLLIYSASNRFPGVPDRFTGSGSGTDFTLTISNMQSEDLADYFCQQYSSYPFTFGSGTKLEIK
notes: also called anti-CK18 (clone 1P1); 克隆号1P1 anti-CK18抗体

From patent CN106866820A (AB-MAT MEDICINE TECH (SHANGHAI) CO LTD, dated 2017)
